Data from patent US20190276496A1 (FUNDACI N PARA LA INVESTIGACI N M DICA APLICADA, published 2019).
[ ]: non-standard residue; d: D form.

B1: peptide of SEQ ID NO: 38 (peptide)
peptide: Ac-GRDFQSFRKMWAFFA[dM]-NH2
SMILES: CSCC[C@H](NC(=O)[C@H](CCCCN)NC(=O)[C@H](CCCNC(=N)N)NC(=O)[C@H](Cc1ccccc1)NC(=O)[C@H](CO)NC(=O)[C@H](CCC(N)=O)NC(=O)[C@H](Cc1ccccc1)NC(=O)[C@H](CC(=O)O)NC(=O)[C@H](CCCNC(=N)N)NC(=O)CNC(C)=O)C(=O)N[C@@H](Cc1c[nH]c2ccccc12)C(=O)N[C@@H](C)C(=O)N[C@@H](Cc1ccccc1)C(=O)N[C@@H](Cc1ccccc1)C(=O)N[C@@H](C)C(=O)N[C@H](CCSC)C(N)=O
B2: peptide of SEQ ID NO: 39 (peptide)
peptide: Ac-GRDFQ[dA]FRKMWPFFAM-NH2
SMILES: CSCC[C@H](NC(=O)[C@H](C)NC(=O)[C@H](Cc1ccccc1)NC(=O)[C@H](Cc1ccccc1)NC(=O)[C@@H]1CCCN1C(=O)[C@H](Cc1c[nH]c2ccccc12)NC(=O)[C@H](CCSC)NC(=O)[C@H](CCCCN)NC(=O)[C@H](CCCNC(=N)N)NC(=O)[C@H](Cc1ccccc1)NC(=O)[C@@H](C)NC(=O)[C@H](CCC(N)=O)NC(=O)[C@H](Cc1ccccc1)NC(=O)[C@H](CC(=O)O)NC(=O)[C@H](CCCNC(=N)N)NC(=O)CNC(C)=O)C(N)=O
B3: peptide of SEQ ID NO: 40 (peptide)
peptide: Ac-GRDFQSFRKMW[dA]FFAM-NH2
SMILES: CSCC[C@H](NC(=O)[C@H](C)NC(=O)[C@H](Cc1ccccc1)NC(=O)[C@H](Cc1ccccc1)NC(=O)[C@@H](C)NC(=O)[C@H](Cc1c[nH]c2ccccc12)NC(=O)[C@H](CCSC)NC(=O)[C@H](CCCCN)NC(=O)[C@H](CCCNC(=N)N)NC(=O)[C@H](Cc1ccccc1)NC(=O)[C@H](CO)NC(=O)[C@H](CCC(N)=O)NC(=O)[C@H](Cc1ccccc1)NC(=O)[C@H](CC(=O)O)NC(=O)[C@H](CCCNC(=N)N)NC(=O)CNC(C)=O)C(N)=O
B4: peptide of SEQ ID NO: 43 (peptide)
peptide: Ac-GR[dA]FQ[dA]FRKMWPFFAM-NH2
SMILES: CSCC[C@H](NC(=O)[C@H](C)NC(=O)[C@H](Cc1ccccc1)NC(=O)[C@H](Cc1ccccc1)NC(=O)[C@@H]1CCCN1C(=O)[C@H](Cc1c[nH]c2ccccc12)NC(=O)[C@H](CCSC)NC(=O)[C@H](CCCCN)NC(=O)[C@H](CCCNC(=N)N)NC(=O)[C@H](Cc1ccccc1)NC(=O)[C@@H](C)NC(=O)[C@H](CCC(N)=O)NC(=O)[C@H](Cc1ccccc1)NC(=O)[C@@H](C)NC(=O)[C@H](CCCNC(=N)N)NC(=O)CNC(C)=O)C(N)=O
B5: peptide of SEQ ID NO: 49 (peptide)
peptide: RDFQSFRKMWPFFAM
modifications: head-to-tail cyclic: linker L is C(=O) between the N-terminal amino group of residue 1 and the alpha carbon of residue 15
B6: peptide of SEQ ID NO: 51 (peptide)
peptide: cyclo(R[dA]FQAFRKMWPFFAM)
SMILES: CSCC[C@@H]1NC(=O)[C@H](C)NC(=O)[C@H](Cc2ccccc2)NC(=O)[C@H](Cc2ccccc2)NC(=O)[C@@H]2CCCN2C(=O)[C@H](Cc2c[nH]c3ccccc23)NC(=O)[C@H](CCSC)NC(=O)[C@H](CCCCN)NC(=O)[C@H](CCCNC(=N)N)NC(=O)[C@H](Cc2ccccc2)NC(=O)[C@H](C)NC(=O)[C@H](CCC(N)=O)NC(=O)[C@H](Cc2ccccc2)NC(=O)[C@@H](C)NC(=O)[C@H](CCCNC(=N)N)NC1=O
B7: peptide of SEQ ID NO: 52 (peptide)
peptide: cyclo(R[dA]FQAFRKMWPFFAM)
SMILES: CSCC[C@@H]1NC(=O)[C@H](C)NC(=O)[C@H](Cc2ccccc2)NC(=O)[C@H](Cc2ccccc2)NC(=O)[C@@H]2CCCN2C(=O)[C@H](Cc2c[nH]c3ccccc23)NC(=O)[C@H](CCSC)NC(=O)[C@H](CCCCN)NC(=O)[C@H](CCCNC(=N)N)NC(=O)[C@H](Cc2ccccc2)NC(=O)[C@H](C)NC(=O)[C@H](CCC(N)=O)NC(=O)[C@H](Cc2ccccc2)NC(=O)[C@@H](C)NC(=O)[C@H](CCCNC(=N)N)NC1=O
B8: peptide of SEQ ID NO: 53 (peptide)
peptide: cyclo(R[dA]FQAFRKMWPFFAM)
SMILES: CSCC[C@@H]1NC(=O)[C@H](C)NC(=O)[C@H](Cc2ccccc2)NC(=O)[C@H](Cc2ccccc2)NC(=O)[C@@H]2CCCN2C(=O)[C@H](Cc2c[nH]c3ccccc23)NC(=O)[C@H](CCSC)NC(=O)[C@H](CCCCN)NC(=O)[C@H](CCCNC(=N)N)NC(=O)[C@H](Cc2ccccc2)NC(=O)[C@H](C)NC(=O)[C@H](CCC(N)=O)NC(=O)[C@H](Cc2ccccc2)NC(=O)[C@@H](C)NC(=O)[C@H](CCCNC(=N)N)NC1=O
B9: peptide of SEQ ID NO: 54 (peptide)
peptide: cyclo(R[dA]FQAFRKMWPFFAM)
SMILES: CSCC[C@@H]1NC(=O)[C@H](C)NC(=O)[C@H](Cc2ccccc2)NC(=O)[C@H](Cc2ccccc2)NC(=O)[C@@H]2CCCN2C(=O)[C@H](Cc2c[nH]c3ccccc23)NC(=O)[C@H](CCSC)NC(=O)[C@H](CCCCN)NC(=O)[C@H](CCCNC(=N)N)NC(=O)[C@H](Cc2ccccc2)NC(=O)[C@H](C)NC(=O)[C@H](CCC(N)=O)NC(=O)[C@H](Cc2ccccc2)NC(=O)[C@@H](C)NC(=O)[C@H](CCCNC(=N)N)NC1=O

The binders below were run against T1, Foxp3 in murine CD25+ Treg cells (mouse, UniProt Q99JB6 1-417) (assay: cell-based or functional assay).
T1 sequence (looked up): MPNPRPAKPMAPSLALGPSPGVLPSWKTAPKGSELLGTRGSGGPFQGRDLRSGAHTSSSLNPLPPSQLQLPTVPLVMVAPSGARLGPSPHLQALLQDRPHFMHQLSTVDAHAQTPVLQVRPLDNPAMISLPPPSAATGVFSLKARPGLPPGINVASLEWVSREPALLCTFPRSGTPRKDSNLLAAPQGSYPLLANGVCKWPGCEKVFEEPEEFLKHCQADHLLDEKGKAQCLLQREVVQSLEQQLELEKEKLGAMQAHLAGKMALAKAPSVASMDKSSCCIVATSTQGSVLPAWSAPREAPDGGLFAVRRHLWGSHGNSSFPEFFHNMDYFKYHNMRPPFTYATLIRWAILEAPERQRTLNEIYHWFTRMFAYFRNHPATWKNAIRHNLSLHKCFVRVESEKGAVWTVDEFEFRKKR

Row | Binder | IC50 (µM) of inhibition of Treg activity, in vitro Treg suppression assay (murine Tconv + Treg, anti-CD3, [3H]-thymidine) [µM]
1 | Ac-GRAFQSFRKMWPFFAM-NH2 [peptide of SEQ ID NO: 13] | 12.5
2 | Ac-GRAFQAFRKMWPFFAM-NH2 [peptide of SEQ ID NO: 41] | 1.9

These binders were tested against human FOXP3 tagged with 6 histidines at the C terminus (human) (UniProt Q9BZS1) (assay: SPR (ProteOn XPR36), FOXP3-6His immobilized on GLM chip, peptide 1-20 µM injected; ratio to p60 (SEQ ID NO: 1)).
human FOXP3 tagged with 6 histidines at the C terminus (human), sequence (Q9BZS1 other isoform, or with tags, fused parts or gaps): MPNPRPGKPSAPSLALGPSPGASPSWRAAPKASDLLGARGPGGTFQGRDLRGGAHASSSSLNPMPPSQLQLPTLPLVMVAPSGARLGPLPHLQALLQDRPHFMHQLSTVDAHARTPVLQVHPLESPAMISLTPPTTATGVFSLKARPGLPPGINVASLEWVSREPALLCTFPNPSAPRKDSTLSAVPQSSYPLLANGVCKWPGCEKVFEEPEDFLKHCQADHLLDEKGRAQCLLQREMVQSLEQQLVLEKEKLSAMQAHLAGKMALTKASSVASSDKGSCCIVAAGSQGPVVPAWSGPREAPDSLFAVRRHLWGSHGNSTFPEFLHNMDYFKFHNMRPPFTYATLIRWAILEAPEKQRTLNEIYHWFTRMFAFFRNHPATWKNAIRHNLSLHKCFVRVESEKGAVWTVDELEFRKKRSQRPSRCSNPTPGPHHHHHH

Row | Binder | Ratio binding Peptide/p60 (fold change)
3 | RNFQSFRKMWPFFAM [peptide of SEQ ID NO: 11] | 1.4
4 | RKFQSFRKMWPFFAM [peptide of SEQ ID NO: 12] | 2.2
5 | Ac-GRAFQSFRKMWPFFAM-NH2 [peptide of SEQ ID NO: 13] | 3.2
6 | RDWQSFRKMWPFFAM [peptide of SEQ ID NO: 16] | 3.7
7 | RDYQSFRKMWPFFAM [peptide of SEQ ID NO: 17] | 3.3
8 | RDLQSFRKMWPFFAM [peptide of SEQ ID NO: 18] | 1.9
9 | RDFQRFRKMWPFFAM [peptide of SEQ ID NO: 20] | 3.7
10 | RDFQNFRKMWPFFAM [peptide of SEQ ID NO: 21] | 3.2
11 | RDFQWFRKMWPFFAM [peptide of SEQ ID NO: 22] | 2.4
12 | RDFQEFRKMWPFFAM [peptide of SEQ ID NO: 23] | 1.3
13 | RDFQYFRKMWPFFAM [peptide of SEQ ID NO: 24] | 4.6
14 | RDFQKFRKMWPFFAM [peptide of SEQ ID NO: 25] | 4
15 | RDFQSFRHMWPFFAM [peptide of SEQ ID NO: 28] | 2.6
16 | RDFQSFRRMWPFFAM [peptide of SEQ ID NO: 29] | 1.4
17 | RDFQSFRKMWRFFAM [peptide of SEQ ID NO: 31] | 2.8
18 | RDFQSFRKMWNFFAM [peptide of SEQ ID NO: 32] | 1.4
19 | RDFQSFRKMWVFFAM [peptide of SEQ ID NO: 33] | 1.3
20 | RDFQSFRKMWYFFAM [peptide of SEQ ID NO: 35] | 1.3

Row | Binder | Ratio binding Peptide/p60 (fold change)
21 | RDFQSFRKMWKFFAM [peptide of SEQ ID NO: 37] | 4.1
22 | B1 | 1.1
23 | B2 | 3.3
24 | B3 | 2.2
25 | Ac-GRAFQAFRKMWPFFAM-NH2 [peptide of SEQ ID NO: 41] | 3.7
26 | H-RAFQAFRKMWPFFAM-OH [peptide of SEQ ID NO: 42] | 4.1
27 | B4 | 4.9
28 | Ac-GRAFQSFRKMWAFFAM-NH2 [peptide of SEQ ID NO: 44] | 3
29 | B5 | 5
30 | B6 | 21.4
31 | B7 | 13
32 | B8 | 2.2
33 | B9 | 25.3
34 | H-R[dA]FQSFRKMWPFFAM-OH [peptide of SEQ ID NO: 6] | 3.3
35 | RSFQSFRKMWPFFAM [peptide of SEQ ID NO: 7] | 1.4
36 | RYFQSFRKMWPFFAM [peptide of SEQ ID NO: 8] | 1.4
37 | RWFQSFRKMWPFFAM [peptide of SEQ ID NO: 9] | 1.4
